Measurements reported in the supplement of paper PMC7877785.
± gives the uncertainty stated by the source.

Experiment: self-splicing fitness, log relative to wild type (ln ratio); higher = more splicing; Tetrahymena group I intron in knt gene, E. coli kanamycin selection, DiMSum; sequences stand for … in CUCUCU…GGAGGGAAAAGUUAUCAGGCAUGCACCUGGUAGCUAGUCUUUAAACCAAUAGAUUGCAUCGGUUUAAAAGGCAAGACCGUCAAAUUGCGGGAAAGGGGUCAACAGCCGUUCAGUACCAAGUCUCAGGGGAAACUUUGAGAUGGCCUUGCAAAGGGUAUGGUAAUAAGCUGACGGACAUGGUCCUAACCACGCAGCCAAGUCCUAAGUCAACAGAUCUUCUGUUGAUAUGGAUGCAGUUCACAGACUAAAUGUCGGUCGGGGAAGAUGUAUUCUUCUCAUAAGAUAUAGUCGGACCUCUCCUUAAUGGGAGCUAGCGGAUGAAGUGAUGCAACACUGGAGCCGCUGGGAACUAAUUUGUAUGCGAAAGUAUAUUGAUUAGUUUUGGAGUACUCGUGGUCG
Outline: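 Colonies from six replicate transformations of E. coli BL21(DE3) were pooled and amplicon-sequenced on an Illumina HiSeq 2500. The library placed an intron with all eight P1ex-region nucleotides randomised inside the knt kanamycin-resistance gene on pET-22b(+), and cells grew overnight at 37°C or 30°C on LB agar with or without 25 μg/mL kanamycin (plus 100 μg/mL carbenicillin, 50 μM IPTG, 0.2% rhamnose). Fitness is the DiMSum error-weighted combination of wild-type-normalised replicate fold changes, kanamycin versus none.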

Row | Sequence | self-splicing fitness (ln) (30 °C) | self-splicing fitness (ln) (37 °C)
1 | CAUUAGCAAUAUUACGUUUA | -1.42 ± 0.15 | -1.48 ± 0.15
2 | GCGUAGCAAUAUUACGUUCU | -2.08 ± 0.13 | -1.38 ± 0.15
3 | CAUUAGCAAUAUUACGCUUC | -2.28 ± 0.34 | 
4 | GGAGAGCAAUAUUACGGUAU |  | -2.2 ± 0.34
5 | UCCUAGCAAUAUUACGUGAC | -3.85 ± 0.2 | -3.03 ± 0.21
6 | ACUCAGCAAUAUUACGUAAA | -1.36 ± 0.069 | -0.79 ± 0.09
7 | AAGCAGCAAUAUUACGCUCC | -1.82 ± 0.16 | -0.511 ± 0.2
8 | UAAUAGCAAUAUUACGAUAU | -3.99 ± 0.47 | -1.52 ± 0.25
9 | GCGGAGCAAUAUUACGGAUC | -0.472 ± 0.083 | -0.528 ± 0.17
10 | CUGUAGCAAUAUUACGAGUG | -0.807 ± 0.07 | 0.314 ± 0.11
11 | ACCGAGCAAUAUUACGGUGU | -2.88 ± 0.13 | -2.15 ± 0.12
12 | ACUGAGCAAUAUUACGUGGA | -2.94 ± 0.2 | -2.88 ± 0.2
13 | GUGCAGCAAUAUUACGAUAU | -0.385 ± 0.091 | -0.244 ± 0.12
14 | UUGCAGCAAUAUUACGCAUG | -2.52 ± 0.13 | -2.99 ± 0.19
15 | GCAUAGCAAUAUUACGUAAU | -2.58 ± 0.1 | -0.793 ± 0.096
16 | UGCGAGCAAUAUUACGGGCC | -2.91 ± 0.28 | -1.54 ± 0.21
17 | CAGAAGCAAUAUUACGAACU | -2.12 ± 0.13 | -1.72 ± 0.17
18 | GACAAGCAAUAUUACGGGUC | -3.73 ± 0.19 | -3.15 ± 0.28
19 | UGGUAGCAAUAUUACGGUAG | -2.53 ± 0.2 | -0.912 ± 0.14
20 | UGGGAGCAAUAUUACGAUUC | -4.38 ± 0.27 | -2.41 ± 0.21
21 | ACGUAGCAAUAUUACGCGUU |  | -2.49 ± 0.24

Row | Sequence | self-splicing fitness (ln) (30 °C) | self-splicing fitness (ln) (37 °C)
22 | UAGGAGCAAUAUUACGCGCA | -0.955 ± 0.1 | -0.414 ± 0.12
23 | AGAAAGCAAUAUUACGCCUA | -1.36 ± 0.14 | -1.04 ± 0.17
24 | GGGCAGCAAUAUUACGGAUC | -0.301 ± 0.057 | 0.486 ± 0.076
25 | AUCUAGCAAUAUUACGCAUC | -4.16 ± 0.47 | -2.81 ± 0.4
26 | CUCCAGCAAUAUUACGAGUU | -2.87 ± 0.17 | -2.66 ± 0.29
27 | AUAAAGCAAUAUUACGCGUU | -1.56 ± 0.084 | 0.0344 ± 0.1
28 | GUCCAGCAAUAUUACGGGCU | -2.54 ± 0.31 | 
29 | AAGCAGCAAUAUUACGCUUG | -2.89 ± 0.16 | -2.14 ± 0.16
30 | ACGAAGCAAUAUUACGCCGG | -0.858 ± 0.11 | -0.467 ± 0.11
31 | GAGGAGCAAUAUUACGGUAA | -3.65 ± 0.37 | -2.22 ± 0.36
32 | GGGAAGCAAUAUUACGCGUU | -2.67 ± 0.24 | -1.49 ± 0.2
33 | GGAGAGCAAUAUUACGAUGA | -2.47 ± 0.49 | 
34 | GAGCAGCAAUAUUACGUUCA | -1.38 ± 0.13 | -0.931 ± 0.13
35 | GGGGAGCAAUAUUACGAACA | -1.6 ± 0.35 | -0.419 ± 0.28
36 | ACACAGCAAUAUUACGGUUC | -3.81 ± 0.14 | -2.03 ± 0.12
37 | ACGAAGCAAUAUUACGGCCG | -0.664 ± 0.19 | 0.746 ± 0.29
38 | GACGAGCAAUAUUACGCUCG | -1.59 ± 0.35 | -1.6 ± 0.33
39 | CUGCAGCAAUAUUACGGACU | -3.58 ± 0.21 | -1.33 ± 0.15
40 | AGGGAGCAAUAUUACGUCGC | -1.42 ± 0.34 | 
41 | UACGAGCAAUAUUACGGCUC |  | 0.0878 ± 0.5
42 | UGCGAGCAAUAUUACGUUCG |  | -1.25 ± 0.34

Row | Sequence | self-splicing fitness (ln) (30 °C) | self-splicing fitness (ln) (37 °C)
43 | UUCUAGCAAUAUUACGAAGC |  | -1.2 ± 0.45
44 | CCGAAGCAAUAUUACGUCGG | -3.35 ± 0.2 | -2.59 ± 0.31
45 | GGAAAGCAAUAUUACGUUGG | -3.55 ± 0.2 | -2.83 ± 0.34
46 | AUAUAGCAAUAUUACGACUC | -0.877 ± 0.15 | -0.341 ± 0.2
47 | GGUUAGCAAUAUUACGUGAU | -2.18 ± 0.19 | -1.14 ± 0.2
48 | ACAGAGCAAUAUUACGGUGU | -3.8 ± 0.15 | -3.02 ± 0.22
49 | CUCCAGCAAUAUUACGAUGC | -2.81 ± 0.25 | -2.95 ± 0.32
50 | ACCAAGCAAUAUUACGGUUG | -3.21 ± 0.11 | -3.88 ± 0.23
51 | GAAGAGCAAUAUUACGGUCC | -2.17 ± 0.26 | -2.32 ± 0.33
52 | ACCCAGCAAUAUUACGAGAU | -1.72 ± 0.061 | -0.655 ± 0.073
53 | AUCCAGCAAUAUUACGCAAG | -2.75 ± 0.18 | 0.207 ± 0.14
54 | CGCAAGCAAUAUUACGCCGA | -2.85 ± 0.26 | -2 ± 0.18
55 | GAGAAGCAAUAUUACGCAGC | -3.2 ± 0.38 | -1.48 ± 0.26
56 | AUGUAGCAAUAUUACGUCUG | -1.94 ± 0.19 | -2.83 ± 0.26
57 | CGAUAGCAAUAUUACGAGGA | -3.08 ± 0.38 | -2.27 ± 0.38
58 | CUCGAGCAAUAUUACGUCUG | -2.84 ± 0.19 | -1.2 ± 0.18
59 | AGAUAGCAAUAUUACGACCG | -1.01 ± 0.17 | 0.121 ± 0.32
60 | CCUCAGCAAUAUUACGGCGU | -3.42 ± 0.21 | -2.64 ± 0.27
61 | CAGAAGCAAUAUUACGCGUU | -3.09 ± 0.17 | -3.61 ± 0.29
62 | CGCGAGCAAUAUUACGCGUC | -3.67 ± 0.28 | -2.68 ± 0.22
63 | GUGGAGCAAUAUUACGUACU | -2.19 ± 0.37 | -2.2 ± 0.32
